According to patent US7754689B2, “Finger-1 peptide analogs of the TGF-β superfamily” (Wyeth LLC, priority 2006, dated 2010):
No end group written: not given here.

B1: BMP2 C-trunc_2 peptide 746 (peptide)
peptide: Ac-LYVSDVGWNDWIVK
modifications: not fully specified (residue 3); printed as Ac-LYV**SDVGWNDWIVK; also: ** after V3 not explained

What was measured:
BMP-3 = molecular target: T1, BMP-3 (Homo sapiens, UniProt P12645); assay: Affinity column chromatography, capture and elution of BMP-3; assay type: binding; conditions: for capture of BMP-3 by column with immobilized ligand: CHO-conditioned media with 1.2 M NaCl (high salt) load; for elution of BMP-3 from column with immobilized ligand: washes, then gradient to 50 mM acetic acid pH 3, then 6M GuHCl
T1 construct: a propeptide fragment copurifies along with the mature protein; made in house; host or cells: CHO cells (conditioned medium)
T1 sequence (P12645 363-472): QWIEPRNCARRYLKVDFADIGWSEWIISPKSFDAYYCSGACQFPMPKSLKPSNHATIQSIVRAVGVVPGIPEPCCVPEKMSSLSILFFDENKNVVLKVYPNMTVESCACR
Protocol: (§1) BMP-12 was immobilized on NHS-activated Sepharose™ beads at a ratio of about 20 mg:4 mL and the resulting media combined with water or neutral saline buffer to prepare a column. CHO-conditioned media augmented with 1.2 M NaCl was loaded onto the column. In some cases, the media was preconcentrated with respect to BMP before loading. The column was washed with 15 CV (column volumes) of 1.2 M NaCl in 40 mM Na2HPO4 at pH 7.2, followed by 0.5 M arginine/0.5 M NaCl in 20 mM Tris at pH 7.5 (15 CV) and a low salt wash (50 mM ammonium acetate at pH 7, 15 CV). […] Finally, the column was eluted with 5CV of the acetic acid solution with 6M guanidine hydrochloride (GuHCl).
The eluate was analyzed using HPLC.
4 mL of the resulting resin (1.6×2.0 cm) was used to prepare a column. The column was loaded with BMP-3 and eluted as in Example 1.

BMP-12 [1] = molecular target: T2, BMP-12 (Homo sapiens, UniProt Q7Z4P5); assay: Affinity column chromatography, capture and elution of BMP-12; assay type: binding; conditions: for capture of BMP-12 by column with immobilized ligand: high salt / high ionic strength load; for elution of BMP-12 from column with immobilized ligand: washes, then gradient to 50 mM acetic acid pH 3, then 6M GuHCl
T2 sequence (Q7Z4P5 322-450): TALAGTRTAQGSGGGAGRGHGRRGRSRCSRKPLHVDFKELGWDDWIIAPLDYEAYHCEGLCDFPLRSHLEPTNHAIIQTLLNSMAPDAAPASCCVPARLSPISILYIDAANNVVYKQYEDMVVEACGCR
Protocol: as §1
BMP-12 was loaded and eluted from a BMP-12 affinity column as in Example 1.
BMP-12 was purified using a column prepared with the BMP-12 wild type peptide described in Example 7.

GDF-9 = molecular target: T3, GDF-9 (Homo sapiens, UniProt O60383); assay: Affinity column chromatography, capture and elution of GDF-9; assay type: binding
T3 sequence (O60383 320-454): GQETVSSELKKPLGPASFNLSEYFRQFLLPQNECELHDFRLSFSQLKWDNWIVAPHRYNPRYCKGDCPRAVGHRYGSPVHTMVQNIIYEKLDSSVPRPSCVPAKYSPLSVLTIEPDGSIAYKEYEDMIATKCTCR
Protocol: as §1
A lower molecular weight contaminant was also present.

BMP-12 [2] = molecular target: T4, BMP-12 (UniProt Q7Z4P5 322-450, limits assumed); assay: peptide resin, filter plate; load 6: 1M CHES pH 9.7
T4 construct: also called BMP12/GDF7
T4 sequence (looked up): T2 sequence (Q7Z4P5 322-450)
Protocol: (§2) The coupled resins, plus an unconjugated resin for use as a control, were suspended in 16% ethanol, 150 mM NaCl, and 20 mM Tris buffer at pH 7.5 at a 25% v/v ratio (e.g., 25% ethanol, 75% Tris buffer). A Tecan liquid-handling robot was employed to aliquot 200 μL of each slurry into one of eight rows of a 96 well polystyrene filter plate (0.45 μm hydrophilic filters, Whatman catalog number 770-1806). Spinning at 1200 g for 3 min removed the liquid phase, leaving 50 μL of wet resin on the filters. The resins were then equilibrated with the loading buffers listed in Table 6 (K is a coefficient characterizing the strength of protein binding to a particular resin in a particular buffer). […] The resins were loaded by transferring 150 μL from the load plate to the filter plate and then incubating 20 min on a shaking platform to facilitate binding. The filter plate was spun down and the filtrate collected in a 96 well UV plate. The protein concentration in the filtrate, or flow-through, was calculated as $(A280-A320)/1.3$. The filter plate was then washed with 150 μL of 100 mM acetic acid, followed by 150 μL of 4M guanidine-HCl and 50 mM sodium acetate at pH 4.0. The protein concentration was measured in the new filtrate as described above. […] Flow-through and acetic acid elution samples from column 4 of the plate (loaded with MES pH 6) were analyzed on a gel (FIG. 14).

BMP-12 [3] = molecular target: T4, BMP-12; assay: peptide resin, filter plate; load 4: 25 mM MES pH 6.0
Protocol: as §2

BMP-12 [4] = molecular target: T4, BMP-12; assay: peptide resin, filter plate; load 5: 25 mM HEPES pH 7.0
Protocol: as §2

BMP-12 [5] = molecular target: T4, BMP-12; assay: peptide resin, filter plate; load 3: 25 mM Na Acetate pH 5.0
Protocol: as §2

BMP-12 [6] = molecular target: T4, BMP-12; assay: peptide resin, filter plate; load 1: 50 mM Acetic Acid, 0.1 M NaCl, pH 2.9
Protocol: as §2

BMP-12 [7] = molecular target: T4, BMP-12; assay: peptide resin, filter plate; load 2: 50 mM Acetic Acid, 0.1 M NaCl, pH 4.0
Protocol: as §2

BMP-12 [8] = molecular target: T4, BMP-12; assay: peptide resin, filter plate; load 10: 50 mM Tris, 0.1 M NaCl, 40% MPD, pH 8.0
Protocol: as §2

BMP-12 [9] = molecular target: T4, BMP-12; assay: peptide resin, filter plate; load 12: 50 mM Tris, 0.1 M NaCl, 20% MPD, pH 8.0
Protocol: as §2

BMP-12 [10] = molecular target: T4, BMP-12; assay: peptide resin, filter plate; load 11: 50 mM Tris, 0.25 M NaCl, 30% MPD, pH 8.0
Protocol: as §2

Row | Molecule | Flow-through K (BMP-12 [2]) | Flow-through conc (BMP-12 [2]) | 100 mM HAc elution K (BMP-12 [3]) | 100 mM HAc elution conc (BMP-12 [3]) | 4M Gnd, 50 mM NaAc pH 4 Strip Conc (BMP-12 [3]) | Flow-through K (BMP-12 [3]) | Flow-through conc (BMP-12 [3]) | 100 mM HAc elution K (BMP-12 [4]) | 100 mM HAc elution conc (BMP-12 [4]) | 4M Gnd, 50 mM NaAc pH 4 Strip Conc (BMP-12 [4]) | Flow-through K (BMP-12 [4]) | Flow-through conc (BMP-12 [4]) | 100 mM HAc elution K (BMP-12 [5]) | 100 mM HAc elution conc (BMP-12 [5]) | 4M Gnd, 50 mM NaAc pH 4 Strip Conc (BMP-12 [5]) | Flow-through K (BMP-12 [5]) | Flow-through conc (BMP-12 [5]) | 100 mM HAc elution K (BMP-12 [6]) | 100 mM HAc elution conc (BMP-12 [6]) | 4M Gnd, 50 mM NaAc pH 4 Strip Conc (BMP-12 [6]) | also measured
1 | KELGWDDWIIAPLDYEAYHCEGLC [SEQ ID NO: 2] |  |  |  |  |  |  |  |  |  |  |  |  |  |  |  |  |  |  |  |  | capture of BMP-3 by column with immobilized ligand (BMP-3): effectively captured; effectiveness of immobilized ligand compared with the BMP-2 mutant (BMP-3; in general): less effective than the BMP-2 mutant; elution of BMP-3 from column with immobilized ligand (BMP-3): eluted in acetic acid; capture of BMP-12 by column with immobilized ligand (BMP-12 [1]): effectively captured; elution of BMP-12 from column with immobilized ligand (BMP-12 [1]): eluted with acetic acid
2 | SDVGWNDWIVAPPGYHAFYCHGEK [SEQ ID NO: 1] |  |  |  |  |  |  |  |  |  |  |  |  |  |  |  |  |  |  |  |  | capture of BMP-3 by column with immobilized ligand (BMP-3): effectively captured; elution of BMP-3 from column with immobilized ligand (BMP-3): eluted, along with a propeptide fragment, in acetic acid; capture of BMP-12 by column with immobilized ligand (BMP-12 [1]): effectively captured; elution of BMP-12 from column with immobilized ligand (BMP-12 [1]): eluted with acetic acid; elution of GDF-9 from column with immobilized ligand (GDF-9): eluted with both 500 mM arginine and acetic acid; capture of GDF-9 by column with immobilized ligand (GDF-9; high salt solution load): effectively captured
3 | Ac-SDVGWNDWIVAPPGYHAFYCHGEK [BMP2 N-trun peptide 750] | -1 | 0.577 mg/mL | 1 | 0.311 mg/mL | 0.06 mg/ml | 36 | 0.037 mg/mL | 0 | 0.187 mg/mL | 0.046 mg/ml | 2 | 0.29 mg/mL | 1 | 0.226 mg/mL | 0.072 mg/ml | 6 | 0.163 mg/mL | 1 | 0.096 mg/mL | 0.044 mg/ml | Flow-through K (BMP-12 [6]): 1; Flow-through conc (BMP-12 [6]): 0.337 mg/mL; 100 mM HAc elution K (BMP-12 [7]): 2; 100 mM HAc elution conc (BMP-12 [7]): 0.194 mg/mL; 4M Gnd, 50 mM NaAc pH 4 Strip Conc (BMP-12 [7]): 0.087 mg/ml; Flow-through K (BMP-12 [7]): 6; Flow-through conc (BMP-12 [7]): 0.164 mg/mL; Flow-through K (BMP-12 [8]): 0; Flow-through conc (BMP-12 [8]): 0.423 mg/mL; Flow-through K (BMP-12 [9]): 1; Flow-through conc (BMP-12 [9]): 0.364 mg/mL; Flow-through K (BMP-12 [10]): 1; Flow-through conc (BMP-12 [10]): 0.342 mg/mL
4 | B1 | -1 | 0.71 mg/mL | 1 | 0.32 mg/mL | 0.07 mg/ml | 47 | 0.029 mg/mL | 1 | 0.249 mg/mL | 0.068 mg/ml | 6 | 0.162 mg/mL | 1 | 0.296 mg/mL | 0.1 mg/ml | 18 | 0.07 mg/mL | 3 | 0.154 mg/mL | 0.135 mg/ml | Flow-through K (BMP-12 [6]): 7; Flow-through conc (BMP-12 [6]): 0.15 mg/mL; 100 mM HAc elution K (BMP-12 [7]): 3; 100 mM HAc elution conc (BMP-12 [7]): 0.208 mg/mL; 4M Gnd, 50 mM NaAc pH 4 Strip Conc (BMP-12 [7]): 0.162 mg/ml; Flow-through K (BMP-12 [7]): 25; Flow-through conc (BMP-12 [7]): 0.052 mg/mL; Flow-through K (BMP-12 [8]): 0; Flow-through conc (BMP-12 [8]): 0.505 mg/mL; Flow-through K (BMP-12 [9]): 0; Flow-through conc (BMP-12 [9]): 0.486 mg/mL; Flow-through K (BMP-12 [10]): 0; Flow-through conc (BMP-12 [10]): 0.515 mg/mL
5 | Ac-SDVGWNDWIVAPPGYHAFYSHGEK [BMP2 N-trun 1S peptide 751] | -1 | 0.647 mg/mL | 1 | 0.355 mg/mL | 0.053 mg/ml | 38 | 0.035 mg/mL | 0 | 0.254 mg/mL | 0.044 mg/ml | 4 | 0.216 mg/mL | 1 | 0.285 mg/mL | 0.07 mg/ml | 9 | 0.124 mg/mL | 1 | 0.102 mg/mL | 0.046 mg/ml | Flow-through K (BMP-12 [6]): 1; Flow-through conc (BMP-12 [6]): 0.349 mg/mL; 100 mM HAc elution K (BMP-12 [7]): 1; 100 mM HAc elution conc (BMP-12 [7]): 0.219 mg/mL; 4M Gnd, 50 mM NaAc pH 4 Strip Conc (BMP-12 [7]): 0.089 mg/ml; Flow-through K (BMP-12 [7]): 6; Flow-through conc (BMP-12 [7]): 0.156 mg/mL; Flow-through K (BMP-12 [8]): 0; Flow-through conc (BMP-12 [8]): 0.435 mg/mL; Flow-through K (BMP-12 [9]): 1; Flow-through conc (BMP-12 [9]): 0.411 mg/mL; Flow-through K (BMP-12 [10]): 0; Flow-through conc (BMP-12 [10]): 0.425 mg/mL
6 | Ac-VAPPGYHAFYSHGEK [BMP2 N-trunc_2 peptide 745] | -1 | 0.626 mg/mL | -1 | 0.104 mg/mL | 0.027 mg/ml | 0 | 0.426 mg/mL | 0 | 0.077 mg/mL | 0.021 mg/ml | 1 | 0.397 mg/mL | 0 | 0.073 mg/mL | 0.026 mg/ml | 1 | 0.407 mg/mL | 1 | 0.058 mg/mL | 0.024 mg/ml | Flow-through K (BMP-12 [6]): 1; Flow-through conc (BMP-12 [6]): 0.397 mg/mL; 100 mM HAc elution K (BMP-12 [7]): 1; 100 mM HAc elution conc (BMP-12 [7]): 0.057 mg/mL; 4M Gnd, 50 mM NaAc pH 4 Strip Conc (BMP-12 [7]): 0.026 mg/ml; Flow-through K (BMP-12 [7]): 1; Flow-through conc (BMP-12 [7]): 0.41 mg/mL; Flow-through K (BMP-12 [8]): 0; Flow-through conc (BMP-12 [8]): 0.464 mg/mL; Flow-through K (BMP-12 [9]): 0; Flow-through conc (BMP-12 [9]): 0.435 mg/mL; Flow-through K (BMP-12 [10]): 0; Flow-through conc (BMP-12 [10]): 0.431 mg/mL
